Here are results for two molecules from publication PMC10864275, “Binding kinetics drive G protein subtype selectivity at the β1-adrenergic receptor” (Nature Communications, 2024).

Experiment [1] concerns the target avi-β1AR-E (turkey β1-adrenergic receptor, β1AR-E construct with N-terminal biotinylated avi-tag) (turkey), P07700. Nature of the experiment: BLI; biotinylated avi-β1AR in LMNG on streptavidin biosensors, mini-G in solution; 500 μM isoprenaline; 20 mM TrisHCl pH 8.0, 150 mM NaCl, 15 mM MgCl2, 0.02% LMNG, 0.1% BSA; 25 °C; single point measurements, monophasic 1:1 local fit, n = 3. On the technique in general: In BLI a coated tip is dipped into the sample, and binding shifts an interference pattern.

Experiment [2] deals with avi-β1AR-W (turkey β1-adrenergic receptor β1AR-MetΔ5, thermostabilised with E130W, N-terminal biotinylated avi-tag) (turkey), P07700. The experiment is described as follows: BLI; biotinylated avi-tagged receptor in LMNG immobilised on streptavidin biosensors; 500 μM isoprenaline; mini-G in solution at a single concentration (0.125-4 μM); 20 mM TrisHCl pH 8.0, 150 mM NaCl, 15 mM MgCl2, 0.02% LMNG, 0.1% BSA; 25 °C; 1:1 monophasic local partial fit; one of n = 3 tips.
Sequence of avi-β1AR-W (turkey β1-adrenergic receptor β1AR-MetΔ5, thermostabilised with E130W, N-terminal biotinylated avi-tag) (turkey), P07700 (P07700 other isoform, or with tags, fused parts or gaps E130W): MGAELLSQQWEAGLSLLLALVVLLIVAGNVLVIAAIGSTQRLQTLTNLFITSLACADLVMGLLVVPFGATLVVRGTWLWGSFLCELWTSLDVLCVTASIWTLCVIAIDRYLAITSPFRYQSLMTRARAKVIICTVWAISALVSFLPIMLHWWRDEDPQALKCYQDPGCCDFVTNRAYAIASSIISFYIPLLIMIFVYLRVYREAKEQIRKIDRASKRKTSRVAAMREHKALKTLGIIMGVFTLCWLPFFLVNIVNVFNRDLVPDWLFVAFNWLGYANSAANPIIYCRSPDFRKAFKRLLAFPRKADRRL

Experiment [3] concerns the target avi-β1AR-E (turkey β1-adrenergic receptor, minimally thermostabilised construct with E130 restored, N-terminal biotinylated avi-tag) (turkey), P07700. The experiment is described as above.

“And” between values parts separate entries of the source, which are not always exact repeats. Equal entries are not always repeated.

Sequence of avi-β1AR-E (turkey β1-adrenergic receptor, β1AR-E construct with N-terminal biotinylated avi-tag) (turkey), P07700 (P07700 other isoform, or with tags, fused parts or gaps): as the sequence (P07700 other isoform, or with tags, fused parts or gaps E130W) above, with W100E counted along it
Sequence of avi-β1AR-E (turkey β1-adrenergic receptor, minimally thermostabilised construct with E130 restored, N-terminal biotinylated avi-tag) (turkey), P07700 (P07700 other isoform, or with tags, fused parts or gaps): as the sequence (P07700 other isoform, or with tags, fused parts or gaps E130W) above, with W100E counted along it

B1: mini-Go1 R12 (domain or fragment)
chain: IEKNLKEDGISAAKDVKLLLLGADNSGKSTIVKQMKIIHTTGIVETHFTFKNLHFRLFDVGGQRSERKKWIHCFEDVTAIIFCVDLSDYNRMHESLMLFDSICNNKFFIDTSIILFLNKKDLFGEKIKKSPLTICFPEYTGPNTYEDAAAYIQAQFESKNRSPNKEIYCHMTCATDTNNAQVIFDAVTDIIIANNLRGCGLY
modifications: not checked
Broadly, the Kd is the free concentration of one partner at which half of the binding sites on the other are occupied at equilibrium, for simple one-to-one binding. For orientation: koff means the first-order rate constant of dissociation. The term kon denotes the rate constant with which the complex forms. In experiment [1], B1 had a Kd of 1340 nM and a fold reduction of kon against mini-Gs of 50 fold. Moreover, in experiment [2], the Kd was 8710 nM and 8110 nM and 5420 nM; the koff was 0.0102 s⁻¹ and 0.00894 s⁻¹ and 0.00914 s⁻¹; the kon is 1170 M⁻¹ s⁻¹ and 1100 M⁻¹ s⁻¹ and 1690 M⁻¹ s⁻¹. In experiment [3], the Kd was 1430 nM and 1120 nM and 1460 nM; the koff was 0.0042 s⁻¹ and 0.00358 s⁻¹ and 0.00401 s⁻¹; the kon is 2950 M⁻¹ s⁻¹ and 3200 M⁻¹ s⁻¹ and 2740 M⁻¹ s⁻¹.

B2: mini-Gs 393 with C96A (domain or fragment)
chain: GIEKQLQKDKQVYRATHRLLLLGADNSGKSTIVKQMRIYHGGSGGSGGTSGIFETKFQVDKVNFHMFDVGGQRDERRKWIQAFNDVTAIIFVVDSSDYNRLQEALNDFKSIWNNRWLRTISVILFLNKQDLLAEKVLAGKSKIEDYFPEFARYTTPEDATPEPGEDPRVTRAKYFIRDEFLRISTASGDGRHYCYPHFTCAVDTENARRIFNDCRDIIQRMHLRQYELL
modifications: not checked
The molecule B2 displayed a Kd in experiment [1] of 47 nM.
